Reference: article PMC5932218 (Structure (London, England : 1993), 2018)

What was measured:
[1] = target: NaV1.5 inactivation gate peptide Q1483-A1529 (human) (UniProt Q14524); assay: NMR titration
[2] = target: NaV1.5 inactivation gate peptide Q1483-A1529 (human) (UniProt Q14524); assay: SEC-MALS
[3] = target: NaV1.5 inactivation gate peptide Q1483-A1529 (human) (UniProt Q14524); assay: SAXS
[4] = target: NaV1.2 inactivation gate peptide (aligned to NaV1.5 Q1483-A1529) (human); assay: ITC
[5] = target: NaV1.4 inactivation gate peptide (aligned to NaV1.5 Q1483-A1529) (human); assay: ITC
[6] = target: NaV1.5 inactivation gate peptide D1471-V1532 (full-length IG, 62 residues) (human) (UniProt Q14524); assay: ITC
[7] = target: NaV1.5 inactivation gate peptide Q1483-A1529 (human) (UniProt Q14524); assay: ITC
[8] = target: NaV1.6 inactivation gate peptide (aligned to NaV1.5 Q1483-A1529) (human); assay: ITC
calmodulin (CaM) [9] = target: T1, calmodulin (CaM) (Homo sapiens, UniProt P0DP25); assay: Isothermal titration calorimetry of CaM binding to NaV IG peptides; conditions: for effect of truncation of the IG peptide on CaM affinity: N- and C-terminally truncated IG peptides, Ca2+ present; for stoichiometry: 1:1 binding model
calmodulin (CaM) [10] = conditions: ref (15); cited from earlier work
[11] = Solubility of IG peptide in ITC buffers; type: physicochemical; conditions: under higher ionic strength conditions
calmodulin (CaM) [12] = target: T1, calmodulin (CaM); assay: NMR analysis of Ca2+-loaded CaM binding to wild type versus mutant IG peptides; conditions: 15N-enriched IG peptide with CaM, intermediate versus slow exchange
[13] = ITC, 20 mM TRIS, 50 mM NaCl, 1 mM CaCl2, pH 7.4, triplicate, ± SD
[14] = ITC, in the presence of Ca2+, lower ionic strength buffer

Chain of NaV1.5 inactivation gate peptide D1471-V1532 (full-length IG, 62 residues) (human) (Q14524 1471-1532, tags left off): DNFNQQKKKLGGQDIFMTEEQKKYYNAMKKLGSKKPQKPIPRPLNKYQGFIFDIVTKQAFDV

For “calmodulin (CaM), Ca2+-loaded unless stated (from UniProt P0DP25 1-149) (natural protein)”, the stoichiometry N [1] was 1, the stoichiometry N [2] was 1 and the stoichiometry N [3] was 1. For the same substance, the stoichiometry N [4] was 1.02, the stoichiometry N [5] was 1.06 and the dH [6] was -9.3 kcal/mol. The dH [7] was -5.8 kcal/mol, the Kd [8] was 82 nM and the stoichiometry N [8] was 1.03.

With “T1526: NaV1.5 IG peptide with the C terminus truncated to T1526” the “effect of truncation of the IG peptide on CaM affinity” value (calmodulin (CaM) [9]; ITC) was “reduced affinity into the μM range”.

For “Q1483: NaV1.5 IG peptide with the N terminus truncated to Q1483”, the “effect of truncation of the IG peptide on CaM affinity” value (calmodulin (CaM) [9]; ITC) was “no effect on CaM affinity”.

In the case of “Y1494A: Y1494A site A mutant of the IG from a previous study”, the “effect of Y1494A site A mutation on CaM affinity” value (calmodulin (CaM) [10]) is given as “substantially reduced”.

For “H-GPGSQDIFMTEEQKKYYNAMKKLGSKKPQKPIPRPLNKIQGIVFDFVTQQA-OH [NaV 1.6]”, the stoichiometry (calmodulin (CaM) [9]; [13]) was 1.03 ± 0.01, the “ΔH” value (calmodulin (CaM) [9]; [13]) was -9.0 ± 0.2 kcal/mol and the “ΔS (cal/mol•deg)” value (calmodulin (CaM) [9]; [13]) was 2.5 ± 1.1 cal/mol•deg. It also gave a Kd (calmodulin (CaM) [9]; SD) of 82 ± 20 nM.

For “D1471-V1532: 62-residue peptide corresponding to the full-length NaV1.5 inactivation gate (IG)”, the “CaM interaction in the absence of Ca2+” value (calmodulin (CaM) [9]; ITC, absence of Ca2+) was “no interaction was observed”, the ΔH (calmodulin (CaM) [9]; [14]) was -9.3 ± 0.1 kcal/mol and the ΔS (calmodulin (CaM) [9]; [14]) was 5.2 ± 1.1 cal/mol•deg. For the same substance, the solubility [11] was “limited solubility”.

In the case of “D1523: NaV1.5 IG peptide with the C terminus truncated to D1523”, the “effect of truncation of the IG peptide on CaM affinity” value (calmodulin (CaM) [9]; ITC) is reported as “reduced affinity into the μM range”.

In the case of “H-GPGSQDIFMTEEQKKYYNAMKKLGSKKPQKPIPRPQNKIQGMVYDLVTKQA-OH [NaV 1.4]”, the stoichiometry (calmodulin (CaM) [9]; [13]) is reported as 1.06 ± 0.01, the “ΔH” value (calmodulin (CaM) [9]; [13]) is reported as -8.8 ± 0.3 kcal/mol and the “ΔS (cal/mol•deg)” value (calmodulin (CaM) [9]; [13]) is reported as 3.8 ± 1.3 cal/mol•deg.

In the case of “IG peptide double mutant: IG peptide with both the Y1494L (Site A) and F1522L (Site B) mutations”, the “affinity of CaM for the variant IG peptide relative to WT” value (calmodulin (CaM) [12]) is reported as “significant reduction in the affinity”.
